Experimental data from the Human Domainome abundance scans (Beltran et al. 2025).
± gives the uncertainty stated by the source.

B1: RAS guanyl-releasing protein 1, residues 539 to 593; numbered along this chain, O95267 (parent)
chain: GFPHNFQETTYLKPTFCDNCAGFLWGVIKQGYRCKDCGMNCHKQCKDLVVFECKK
B2: Zinc finger homeobox protein 4, residues 2562 to 2617; numbered along this chain, Q86UP3 (parent)
chain: RLRTTITPEQLEILYEKYLLDSNPTRKMLDHIAREVGLKKRVVQVWFQNTRARERK

Variants of: B1
Test: abundance fitness (aPCA) (normalised: wild type 0, dead -1); higher = more abundant; growth selection in yeast, the domain comes from the species named
Conditions: Homo sapiens

Variant | abundance fitness
C45P | -0.977 ± 0.22
E8Q | 0.086 ± 0.11
E8R | -0.068 ± 0.085
E8S | -0.191 ± 0.1
E8V | 0.039 ± 0.078
E8C | -0.107 ± 0.1
E8I | -0.063 ± 0.17
G26T | -0.529 ± 0.14
G26M | -0.345 ± 0.056
G26C | -0.563 ± 0.059
G26F | -0.703 ± 0.14
F51E | -0.044 ± 0.098
F51Q | 0.002 ± 0.091
F51W | -0.09 ± 0.094
F51G | 0.033 ± 0.06
T10E | -0.925 ± 0.15
T10R | -0.494 ± 0.073
T10H | -0.364 ± 0.15
T10Y | -0.291 ± 0.081
T10Q | -0.357 ± 0.093
F16G | -0.333 ± 0.068
F16V | -0.385 ± 0.064
F16L | -0.487 ± 0.11
F16Y | 0.024 ± 0.12
F16K | -0.205 ± 0.12

Variant | abundance fitness
M39V | -0.111 ± 0.046
M39D | -0.242 ± 0.066
M39I | -0.115 ± 0.045
M39K | -0.079 ± 0.055
M39A | -0.111 ± 0.041
M39N | -0.15 ± 0.049
C41F | -0.331 ± 0.095
C41W | -0.191 ± 0.073
C41L | -0.023 ± 0.061
C41V | 0.068 ± 0.082
Q7P | -0.961 ± 0.32
Q7T | -0.236 ± 0.11
Q7C | -0.366 ± 0.19
Q7H | -0.096 ± 0.14
P14W | -0.108 ± 0.076
P14T | -0.767 ± 0.15
P14Q | -1 ± 0.31
P14E | -0.886 ± 0.18
P14N | -0.931 ± 0.35
G38C | -0.095 ± 0.066
G38N | 0.062 ± 0.14
G38Y | -0.514 ± 0.23
G38Q | -0.281 ± 0.15
G38T | -0.282 ± 0.17
Y11K | -0.036 ± 0.12

Variant | abundance fitness
Y11A | -0.267 ± 0.098
Y11P | -0.742 ± 0.2
G22D | -0.189 ± 0.079
C34I | -0.724 ± 0.32
C34M | -0.649 ± 0.086
C34T | -0.776 ± 0.21
C34D | -0.269 ± 0.12
C34S | -0.947 ± 0.12
C34Y | -0.922 ± 0.38
C34H | -0.809 ± 0.38
C34V | -0.723 ± 0.12
G31L | -0.663 ± 0.066
G31W | -0.901 ± 0.21
K46V | -0.251 ± 0.11
K46M | 0.208 ± 0.088
K46Y | -0.052 ± 0.092
K46P | -0.147 ± 0.084
C17R | -0.851 ± 0.15
C17I | -0.869 ± 0.31
C17F | -1.14 ± 0.24
C17L | -1.26 ± 0.27
C17E | -0.826 ± 0.4
C17G | -0.99 ± 0.27
K55H | -0.597 ± 0.26
K55T | -0.271 ± 0.16

Variant | abundance fitness
K55E | -0.242 ± 0.31
K55N | -0.138 ± 0.18
K55L | -0.718 ± 0.32
H4M | -0.335 ± 0.12
H4P | -0.915 ± 0.13
H4G | -0.847 ± 0.082
K54D | -0.186 ± 0.15
K54H | -0.567 ± 0.27
K54P | -0.586 ± 0.31
K54M | 0.018 ± 0.098
D36G | 0.118 ± 0.08
D36H | -0.148 ± 0.29
D36Q | -0.209 ± 0.11
D36I | -0.028 ± 0.22
D36L | -0.051 ± 0.072
D36E | -0.021 ± 0.099
F23Q | -0.204 ± 0.12
F23C | -0.166 ± 0.16
F23S | -0.431 ± 0.072
F23D | -0.423 ± 0.11
F23W | 0.014 ± 0.09
F23T | -0.503 ± 0.14
F23E | -0.333 ± 0.12

Variants of: B2
Test: as above
Conditions: Homo sapiens

Variant | abundance fitness
T5E | 0.141 ± 0.15
W46M | -0.815 ± 0.15
W46D | -0.536 ± 0.16
D21N | -0.188 ± 0.086
D21I | -0.406 ± 0.12
E35Y | -0.493 ± 0.18
E35C | -0.393 ± 0.081
V42C | -0.179 ± 0.093
T4Y | -0.109 ± 0.15
T4Q | -0.096 ± 0.12
T50I | -0.042 ± 0.1
T50M | -0.094 ± 0.083
T50V | -0.068 ± 0.071
T50H | -0.034 ± 0.12
T50C | -0.345 ± 0.14
E54A | -0.433 ± 0.059
L11S | -0.082 ± 0.074
L11C | -0.85 ± 0.14
Q48W | -0.556 ± 0.12
R3N | 0.829 ± 0.18
R3I | 0.319 ± 0.12
R3D | 0.68 ± 0.12
H31G | -0.004 ± 0.074

Variant | abundance fitness
L20S | -0.193 ± 0.058
L20D | -0.333 ± 0.15
L20V | -0.02 ± 0.063
L20R | -0.162 ± 0.075
P8W | -0.177 ± 0.11
V36G | -0.812 ± 0.1
V36E | -0.671 ± 0.11
V36F | -0.623 ± 0.26
R41I | -0.038 ± 0.16
R41L | 0.115 ± 0.08
R53M | 0.077 ± 0.079
R53H | 0.104 ± 0.081
Q10S | -0.603 ± 0.12
Q10G | -0.695 ± 0.089
Q10M | -0.326 ± 0.059
I13T | -0.139 ± 0.065
E12R | 0.007 ± 0.047
R1N | 0.002 ± 0.29
R34K | 0.004 ± 0.08
V45N | -0.384 ± 0.27
L2D | 0.31 ± 0.13
L2T | 0.105 ± 0.12
T7C | -0.258 ± 0.3

Variant | abundance fitness
K40V | 0.264 ± 0.052
P24C | -0.777 ± 0.077
A33Q | -0.669 ± 0.45
A33E | -0.352 ± 0.21
R51I | 0.134 ± 0.064
L19K | -0.154 ± 0.12
L19Y | -0.153 ± 0.15
L19I | 0.196 ± 0.14
N49Y | -0.414 ± 0.17
I6R | -0.983 ± 0.076
K17L | -0.508 ± 0.33
R26E | 0.171 ± 0.16
R26H | -0.017 ± 0.36
A52H | -0.172 ± 0.071
D30R | -0.144 ± 0.078
D30T | 0.002 ± 0.089
E9V | -0.157 ± 0.056
E9D | 0.038 ± 0.085
Q44A | -0.011 ± 0.092
L29K | -0.621 ± 0.1
L29I | -0.033 ± 0.063
M28P | -1.06 ± 0.23
M28L | -0.102 ± 0.064
